Patent publication US20050079516A1, “Chromosome stability assay” (The Board of Trustees of the University of Illinois, priority 2003, published 2005)

Columns and labels:
[1] = test system: chromatin strands from normal human microvascular endothelial cells; assay: proteinase K treatment of isolated chromatin strands; type: biochemical; conditions: normal endothelial cell chromatin; proteinase K 5 mg/ml, 5 minutes
Description: (§1) FIGS. 2D and 2E illustrate the effects of treatment of chromatin strands from normal human microvascular endothelial cells and invasive HT1080 fibrosarcoma cells with proteinase K under the conditions described above except that proteinase K (5 mg/ml) was substituted for ALU and the incubation time was reduced from 60 minutes to 5 minutes.

[2] = test system: chromatin strands from invasive HT1080 fibrosarcoma cells; assay: as above; type: biochemical, human; conditions: proteinase K 5 mg/ml, 5 minutes
Description: as §1

chromatin strands = assay: degradation of chromatin strands with other endonucleases; type: biochemical; conditions: isolated chromatin strands

| Molecule | chromatin dispersion (FIGS. 2D, 2E) [1] | chromatin dispersion (FIGS. 2D, 2E) [2] | correlation of chromatin cleavage pattern with invasive potential of the cell (chromatin strands) |
| --- | --- | --- | --- |
| proteinase K: protease proteinase K, chromatin modifying agent (protein, UniProt P06873 106-384, looked up) Proteinase K: AAQTNAPWGLARISSTSPGTSTYYYDESAGQGSCVYVIDTGIEASHPEFEGRAQMVKTYYYSSRDGNGHGTHCAGTVGSRTYGVAKKTQLFGVKVLDDNGSGQYSTIIAGMDFVASDKNNRNCPKGVVASLSLGGGYSSSVNSAAARLQSSGVMVAVAAGNNNADARNYSPASEPSVCTVGASDRYDRRSSFSNYGSVLDIFGPGTSILSTWIGGSTRSISGTSMATPHVAGLAAYLMTLGKTTAASACRYIADTANKGDLSNIPFGTVNLLAYNNYQA | remained largely intact | extensively dispersed |  |
| RNase A: nuclease (protein, UniProt P61823 27-150, looked up) Ribonuclease pancreatic: KETAAAKFERQHMDSSTSAASSSNYCNQMMKSRNLTKDRCKPVNTFVHESLADVQAVCSQKNVACKNGQTNCYQSYSTMSITDCRETGSSKYPNCAYKTTQANKHIIVACEGNPYVPVHFDASV |  |  | does not exhibit chromatin cleavage patterns that correlate with the invasive potential |
